Results as given in patent US20030130484A1, “Inhibitors and disassemblers of fibrillogenesis” (priority 2001, published 2003).

Target: human Aβ1-40 peptide (human)
Test: cell-based or functional assay

human Aβ1-40 peptide (human), sequence (peptide, as listed by the source): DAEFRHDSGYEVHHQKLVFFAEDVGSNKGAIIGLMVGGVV

Row | Inhibition of Fibrillogenesis IC50 (thioflavin fluorescence) (inhibitor:Aβ40 molar ratio) | Inhibition of Fibrillogenesis ICmax [%] | Inhibition of Fibrilogenesis IC50 (µM) | Inhibition of Fibrilogenesis ICmax (%) | percent inhibition of fibrillogenesis at concentrations at which Aβ16-22m inhibited completely [%] | IC50 of inhibition of Aβ40 fibrillogenesis (inhibitor:Aβ ratio) | Substance
1 | 1.1 | 23 | 1.1 | 23 | 10 to 20 | – | Aβ16-22 (peptide)
2 | – | – | 0.3 | 100 | – | – | Anth-Aβ16-20 (peptide)
3 | 8.4 | 100 | 8.4 | 100 | – | 10 | Ac-Aβ16-22 (Peptide VI)
